In the DeepSol protein solubility set:

Assay: soluble on expression in E. coli; label from the status in PepcDB or PDB records

Sequence	soluble on expression in E. coli
MGHHHHHHSHMGYKLQDLTDVQIMARLQEESLRQDYASTSASVSRHSSSVSLSSGKKGTCSDQEYDQYSLEDEEEFDHLPPPQPRLPRCSPFQRGIPHSQTFSSIRECRRSPSSQYFPSNNYQQQQYYSPQAQTPDQQPNRTNGDKLRRSMPNLARMPSTTAISSNISSPVTVRNSQSFDSSLHGAGNGISRIQSCIPSPGQLQHRVHSVGHFPVSIRQPLKATAYVSPTVQGSSNMPLSNGLQLYSNTGIPTPNKAAASGIMGRSALPRPSLAINGSNLPRSKIAQPVRSFLQPPKPLSSLSTLRDGNWRDGCY	not soluble
MPIDAMSDRNHAFASDEPPEIQVHPHDRYHAVIKKCASLPPLVTAVVHPVDSQVLSAVSDAVMEKLITPLLVGPAGRIEKAADEAGIDLSKWQVIDTPHSHAAAEKAVELAAAREVGAIMKGSLHTDELLGPIVARGSGLRTGRRLSHAYVMDTAGYHKWLIVTDAVVNISPDLCAKADICRNAVDAWVALTGESCLPKIAVLAAVEVVNAAMQATLDAAALCKMAERGQITGCIIDGPLAFDNAISRQAAKEKHIVSQVAGDADILLAPDIEAGNILAKQLTFISHADAAGVVMGAKVPVILTSRADNLRTRLLSCALAVLVQRAKEEGRIK	soluble
TNTEEFCSGCHAPIVKEIQETIHYSNRSGVRAICSDCHVPHNWTDKIVRKVQASKELFAHYVTKTIDTEEKFKERRAHLAEREWHRMKENNSQECRNCHEFDYMDFSEQGPRSAKQHSTALASGEKTCVDCHKGIAHKL	not soluble
MSLSRSEEMHRLTENVYKTIMEQFNPSLRNFIAMGKNYEKALAGVTYAAKGYFDALVKMGELASESQGSKELGDVLFQMAEVHRQIQNQLEEMLKSFHNELLTQLEQKVELDSRYLSAALKKYQTEQRSKGDALDKCQAELKKLRKKSQGSKNPQKYSDKELQYIDAISNKQGELENYVSDGYKTALTEERRRFCFLVEKQCAVAKNSAAYHSKGKELLAQKLPLWQQACADPSKIPERAVQLMQQVASN	soluble
MGSDKIHHHHHHMKFVQKIYYFLFKLVGFLPRRKELVMFESFSGKQYSCNPRAIFEYMEEHNPEYELLWSVNPKYVDLFEAHGVPYVKRFSVNWLFKMGLAKFWISNSRLPLELPKPKKTIYVQTWHGTPLKKLGVDIDEVHMPGQTTEQYKADFVKEAQKWDYLISPNAYSSTIFRRAFGFTGEMIESGYPRNDILFSADKELKIANIKMALNIPEDKKVILYAPTWRDNDFYEIGKYKFDLKIDIAKMQEKFGDEVVLLVRMHYLVAEHFDFTQYGDFVRDASKHEDIRDLYLVSDLLITDYSSVFFDYANLKRPMLFYTYDLAEYRDTLRGFYFDFEQNAPGPLVEMNDALMAEIEIMLENPPQIAESFLEQFCTWEDGHAAEKTVKKVFAEK	not soluble
MGSDKIHHHHHHMTKESILTFSQSKAEPAWLQEKRLAAFDKIDDLELPRIERVKFQRWNLGDGTITESPISANVPDFTSFGENPKLVQLGTQTVLESLPAKLVEQGVVFTDFHSALEEIPQVIEKYFATALKFDEDKLSAYHTAYFNSGSVLYVPDNVEIDLPLEGIFLQDSTSNVPLNKHVLIIAGRHAKVNYLERFETIGDSDVKATANIAVEVLAQAGSQVKFAAIDRLGNNITTYISRRGRLDNDASIDWALGVMNEGNVIADFDSDLIGNGSHAELKVVAASSGRQIQGIDTRVTNYGNNSIGHILQHGVILERGTLTFNGIGHIIKGAKGADAQQESRVLMLSDKARSDANPILLIDENEVTAGHAASIGQVDPEDMYYLMSRGIDKETAERLVIRGFLGTVITEIPVKAVRDEMIAVLDEKLDKR	not soluble
MSIESSATPTTPNAEALQLNSTEVRILGCLIEKQATNPETYPLTLNALVIACNQKTSRDPVMNLTQGQVGQSLRALEGRGLTRLVMGSRADRWEHKVDKGLELVPAQVILTGLLLLRGPQTVSELLTRSNRMHDFEDSEQVVHQLERLIARGLATLVPRQSGQREDRYMHLIGDPEDLQD	soluble
MSLALELRQQLKLSQQLVMTPQLQQAIRLLQLSRLELVETVQQELLENPFLEEGMDEGAASSASEASSRKDESAPEAYDRELSRNADWEDYLGEFASSSRQAQVRETELPEEMTAFEARYSARPSLEGHLMWQLRLSRLTEDQKGIGETIIGNIGSSGYLQASVEDIAEMCGADASEVIPVLHAVQRFDPVGVASRTPQECLLIQIEMLGYDRDRVLVELVRDHLEDLETRRYKPLLRKFKLDMDDLKEYLDIIQSLDPMPGSSFGGSDPMFVSPDVFVYKYDDEFVIVLNDDGLPHLQLSSLYDQSLAGVTGKDKDFVQEKVRSASWLIKSLYQRQRTLYKVVESIIKYQRGFFEDGVTRLRPLILKDIADDISMHESTVSRITTNKFVATPHGVFELKFFFNSALELDDGSQVGSESVKALIKKLIGEENPKEPLSDERIGEILKEQLQVNIARRTVAKYRTAMNIPSSSKRKEVFEGHHHHHH	soluble
MREKLFWILKKYGVSDHIAKAFLEIPREEFLTKSYPLSYVYEDIVLVSYDDGEEYSTSSQPSLMALFMEWVGLDKGMRVLEIGGGTGYNAAVMSRVVGEKGLVVSVEYSRKICEIAKRNVERLGIENVIFVCGDGYYGVPEFSPYDVIFVTVGVDEVPETWFTQLKEGGRVIVPINLKLSRRQPAFLFKKKDPYLVGNYKLETRFITAGGNLGNLLERNRKLLREFPFNREILLVRSHIFVELVDLLTRRLTEIDGTFYYAGPNGVVEFLDDRMRIYGDAPEIENLLTQWESCGYRSFEYLMLHVGYNAFSHISCSI	soluble
YDKEFGGFGGAPKFPMAMNLSFLLRYGQRYGDGEAVAMATDTLTAMAQGGIWDHLGGGFHRYTVDGRWLVPHFEKMLYDQALCTLALVEAAQVTGNSVFRELAKETCGFVLRELSAPAGGFYSALDADSEGREGACYLWTPAQVRDILGVADGELFCRLYAVTAWGNFEGANVLHLPLAPDAFARDEGVDPLRLQEKIAQWHILLLEARERRPRPFRDEKIITGWNGLMIAALARTFLICGDELLLEGAERAVRRVCIDLRTPAGRLVRSCHRGEASGPGFLEDYAFFIRGLLELHEATLDPRHLALARSLAHDMLRLFGDSGGGLFDTGSDAETILVRGKG	not soluble
MLLEAPVYKEIFGAVTIHEVQKVIKMDTETEEVPIYTISNIPREKIYDLLGKMAVIVPMKNEKLHLVDGVLKAIPHKCPIIIVSNSKREGPNRYKLEVDLIRHFYNLTHSKIIMIHQKDPGLAKAFKEVGYTDILDENGMIRSGKGEGMLVGLLLAKAIGAEYVGFVDADNYIPGAVNEYVKDYAAGFLMSESEYTMVRLHWRHKPKVTKGTLYFKKWGRVSEITNHYLNLLVSEHTAFETTIMVTGNAGEHAMTMKLAEILPFSTGYSIEPYEIVYILERFGKWENVEEFKDVFDQGIEIFQIETLNPHFHEDKGKEHVKEMLLLSLATIYHSKLATDNLRKRILKDLRDHGILGENEEPPKPLVMRPIKEIPIKEWMDIVEGNSETLLRFEL	soluble
MAHHHHHHMRKKLVLPLSIGRGFSSWDDGSDGHEWKSRALAEKRLLALTYLGDVNKRVQIHDAIRLRGEVNKQAIRACELPTFFQTKETNEAENLQEIDYHSLLSMIEGEFEVDTLAHIAPSDANFLKTEFLQCDDSAEVKLLGQWSNLRRDTADYNNYASIPDGERNAWSAWYLRNVRPGKTEND	not soluble
MGSDKIHHHHHHMSKWQSKEQLIQLLSSLVEIPSITGTEAEVILPDFVVEQLSDLQYFKENPHHLQKNPTGDGRYFVTALVKKSDRTKNTVILVSHFDVVDVQDYGVWKEDAFNPKKLTSMFYAHKDELPDHVREDIEQGEWLFGRGTMDMKCGLALQMAMIEQACEGRFDGNVLLLAVPDEEVNSVGMRAAIPRLLELAREHDLEYKTVLNSEPMFARHPGDQKKYIYTGSIGKVLPGFLCYGKETHVGEPFAGLNGSYMASLITAELELNTDLCDIVEGEASPPPTNLLQRDLKEDYSVQIPHRAVTLFNLFLLEKSMTDVVSLLRQKVTKVAEKIEEKYEKQAYRFSKYNPFIPPNMKVNVLTYEELIAYAIEQHGQEKINEIQSSIIKNREEKDDRAVTIDLVDKLAILCKEKAPMIVLFFAPPYYPAVSSRNNLLIKEVVTEMEKYANLNHNITFENQNYFGGISDLSYVGLQNPLDSMSSLVDNMPLWDKGYSIPLQELEEFDVPVLNMGPVGKDAHQWTERLDVNYAFETLLDMLPICIEKLLVSNKITQV	not soluble
HAAGFRRGDLVHNTLSYHFSPGGFIMDGGARACGCAVFPAGVGNTEAQIEAIKQLQPTGYTGTPSYLLTLLQKYQEQYGELPSFTKALVSGEAVTADMQQAFTDKGIAVFQAYASAELGLIAYQVAGEQGLVIGED	not soluble
MFADLDYDIEEDKLGIPTVPGKVTLQKDAQNLIGISIGGGAQYCPCLYIVQVFDNTPAALDGTVAAGDEITGVNGRSIKGKTKVEVAKMIQEVKGEVTIHYNKLQADPKQLEVLFNGPGIESVKI	soluble
MGSDKIHHHHHHDEFIQGIGNQNAQESGVWDFSMSISDMKFSQEDGAQTNPMIGMLITQIKDASLSGKIQVDAKKEKAFNLEMKLKAMGMDVPISLVGSLDNEGKEPKLYLATDMMEYIVAVADSMTDGAIDSSQLDTEKLKGKYIDLLAMNEESTKEWQDTIKEYQESEKERKQSAKEYKEFLEGLDKDTFEKKGDTITHTFTKKELQKLIKITTETSEKGKEQDPFEKVKDVSAKVSVNTKENKTNMLINVKPQQDKNVDMGLESLSSKISITQKAKKATISMPKKENILSEQEVEKIFSDSTSMTGLSTEDTTVAINQ	not soluble
MGSDKIHHHHHHMISDTTIRKLVDYISLNACSVNSSGLYNGKSGISLALFETAKCLQDTEIEDKAFSLFQESLIRKTNDYGFENGMSGIGYVLIYLITNKLIDADFEDLFGDQREAIIKHFENIDKQPDKLLVSYKIIYFLFVLDKLQKQDERIYSIIEKIFQGLELYLSLQFFDWKNIYYINSKDYVLQMYEAYLKLVDFCNYKYFSKSLMDSYVTLYSEGRIASSLVRGYYLHSIITKNNMVGFNDVIRDHIRYGQKNINPAILFLDQKINLTGIIENADENRVKIQRIEMDLFEESLERIKRMVRPNCIHVGYQYGLARYLGFCANKKFPLL	not soluble
MGSNTLLCAKWLRGLRPRSRVNPLLNRALAAVGAGSPAKGRQAAPLAPIPRSSPVKALDQLTFDNRFARLGDAFSTQVLPEPIADPRLVVASESAMALLDLDPAQAELPVFAELFSGHKLWEEADPRAMVYSGHQFGSYNPRLGDGRGLLLAEVLNDAGEHWDLHLKGAGQTPYSRMGDGRAVLRSSIREFLASEALHALGIATSRALCVIGSSTPVWRETRESAAMLTRLAQSHVRFGHFEYFYYTKQPEQQRVLIDHVLEQHYPECREAEQPYLAMFRTIVERNAELIARWQAYGFCHGVMNTDNMSILGITFDFGPYAFLDDFDANFICNHSDDRGRYSYANQVPIAHWNLSALAQALTTVIEVEPLKEALGLFLPLYQAHYLDLMRRRLGLTTAEDDDMVLVERLLQCMQRGGVDYSLFFRKLGEQPVAEALKVARDDFIDLAGFDAWGADYLARCGREPGNAEGRRERMHAVNPLYVLRNYLAQKAIEAAEAGDYSEVRRLHQVLARPFEEQPGMQAYAERPPEWGKHLEISCSSLEHHHHHH	soluble
MNALARRAAGLLLSTICLPLTALAADPQPTHEFTLDNGLKVVVREDHRAPVVVSQIWYKVGSSYETPGQTGLSHALEHMMFKGSSKTGPGESSLILRDLGAEENAFTSDDYTAYYQVLARDRLSVALELEADRMATLKLPADEFGREIEVIKEERRLRTDDKPMGKAFERFKAMAYPASGYHTPTIGWMADLERMKVEELRHWYESWYTPNNATLVVVGDVQPDEVKALAERFFGPIPRRDVPPSKKPLELAEPGERKITLHVKTQLPSLIYGFNVPSVATAEDPRSANALRLIAALLDGGYSARIPTRLERGEELVSGASSRYDAFARGDSLFMISATPNMQKKKTLADVEAGIWRLLDDLKTKAPSAEELERVRAQVIAGVVYERDSITSQATMIGELETVGLSWKLMDKELEDLQSVTPQDIQKAANTYFTRERLSVAHVLPEEKAK	not soluble
